Experimental data as given in patent US20120141456A1 (Biogen, published 2012).
Positions count from the first letter of the chain named.

Experiments:
[1] = target: T1, full-length human DR6 on transfected cells (human, UniProt O75509 42-655); assay: FACS on 293E cells transfected with full-length human DR6
T1 construct: also called Death Receptor-6; TNFRSF21
T1 sequence: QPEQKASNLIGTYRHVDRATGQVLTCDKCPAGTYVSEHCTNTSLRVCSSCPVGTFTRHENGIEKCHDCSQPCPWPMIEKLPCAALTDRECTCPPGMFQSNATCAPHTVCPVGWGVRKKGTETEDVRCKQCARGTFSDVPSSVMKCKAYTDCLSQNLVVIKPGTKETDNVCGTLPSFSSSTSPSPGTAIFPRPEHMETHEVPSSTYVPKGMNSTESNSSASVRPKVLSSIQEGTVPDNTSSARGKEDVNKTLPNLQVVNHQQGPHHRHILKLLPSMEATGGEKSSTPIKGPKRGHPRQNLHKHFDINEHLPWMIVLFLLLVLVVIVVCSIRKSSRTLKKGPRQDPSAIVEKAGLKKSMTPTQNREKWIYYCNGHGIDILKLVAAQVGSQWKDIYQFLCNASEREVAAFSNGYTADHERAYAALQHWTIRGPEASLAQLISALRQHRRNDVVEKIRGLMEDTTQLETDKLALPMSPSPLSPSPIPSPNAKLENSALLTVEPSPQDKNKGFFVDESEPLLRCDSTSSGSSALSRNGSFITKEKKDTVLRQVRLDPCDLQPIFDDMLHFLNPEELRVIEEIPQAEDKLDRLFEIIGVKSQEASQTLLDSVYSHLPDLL

[2] = target: T2, full-length rat DR6 on transfected cells (rat, UniProt D3ZF92 42-655); assay: FACS on HEK293 cells transfected with full length rat DR6, serial dilutions of antibody
T2 construct: whole, on cells
T2 sequence (looked up): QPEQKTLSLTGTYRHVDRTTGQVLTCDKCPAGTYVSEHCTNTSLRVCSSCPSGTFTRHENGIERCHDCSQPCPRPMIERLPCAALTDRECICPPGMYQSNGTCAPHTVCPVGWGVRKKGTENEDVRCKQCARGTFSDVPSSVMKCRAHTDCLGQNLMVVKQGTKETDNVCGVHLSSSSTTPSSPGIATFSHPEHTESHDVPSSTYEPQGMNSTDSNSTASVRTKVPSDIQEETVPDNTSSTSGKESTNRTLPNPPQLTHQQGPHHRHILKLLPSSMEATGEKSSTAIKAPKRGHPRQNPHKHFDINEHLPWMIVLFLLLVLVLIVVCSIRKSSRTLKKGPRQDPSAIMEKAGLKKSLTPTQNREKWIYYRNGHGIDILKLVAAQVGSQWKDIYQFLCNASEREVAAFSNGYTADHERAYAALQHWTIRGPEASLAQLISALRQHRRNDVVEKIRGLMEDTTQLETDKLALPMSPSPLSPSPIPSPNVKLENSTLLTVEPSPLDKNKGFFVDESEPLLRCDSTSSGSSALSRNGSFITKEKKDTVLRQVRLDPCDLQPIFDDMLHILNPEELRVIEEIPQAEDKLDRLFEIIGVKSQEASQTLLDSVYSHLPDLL
Method: (§1) Six million HEK293 cells were transfected with 10 ug of plasmid DNA, which encoded full length human, rat, or mouse DR6. Three days after transfection, approximately 50,000 cells in 200 μL of PBS, 1% BSA, 0.1% NaN3 (FACS buffer) were analyzed. Cells were pelleted and resuspended in 150 μl of serial dilutions of anti-DR6 antibodies in FACS buffer. Samples were incubated for 1 hour on ice with occasional agitation and then washed three times. Bound DR6 antibody was visualized with PE-labeled goat F(ab)₂ anti-human Fab (for Dyax Fabs) or anti-mouse IgG specific antibody (for monoclonal antibodies) (Jackson Labs).

[3] = target: T1, full-length human DR6 on transfected …; assay: FACS on HEK293 cells transfected with full length human DR6, serial dilutions of antibody
Method: as §1

[4] = target: T3, full-length mouse DR6 on transfected cells (mouse, UniProt Q9EPU5 42-655); assay: FACS on HEK293 cells transfected with full length mouse DR6, serial dilutions of antibody
T3 sequence: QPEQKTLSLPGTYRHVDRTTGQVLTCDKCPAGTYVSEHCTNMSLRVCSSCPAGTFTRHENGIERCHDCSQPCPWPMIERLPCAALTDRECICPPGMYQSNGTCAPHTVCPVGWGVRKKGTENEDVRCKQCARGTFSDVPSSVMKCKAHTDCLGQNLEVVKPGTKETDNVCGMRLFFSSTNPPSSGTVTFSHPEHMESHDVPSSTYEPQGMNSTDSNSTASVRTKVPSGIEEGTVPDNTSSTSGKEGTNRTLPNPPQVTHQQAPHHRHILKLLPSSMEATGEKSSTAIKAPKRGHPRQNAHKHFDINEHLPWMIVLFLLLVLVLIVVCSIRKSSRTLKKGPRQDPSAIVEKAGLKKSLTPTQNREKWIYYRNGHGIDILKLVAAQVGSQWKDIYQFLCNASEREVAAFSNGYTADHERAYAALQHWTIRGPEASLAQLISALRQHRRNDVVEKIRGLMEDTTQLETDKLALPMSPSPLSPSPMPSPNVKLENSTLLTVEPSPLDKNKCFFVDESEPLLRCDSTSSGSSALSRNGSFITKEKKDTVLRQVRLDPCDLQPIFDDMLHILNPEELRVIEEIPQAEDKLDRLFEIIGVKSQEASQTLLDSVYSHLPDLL
Method: as §1

[5] = target: T2, full-length rat DR6 on transfected cells; assay: FACS on 293T cells transfected with rat DR6 (FIG. 13A)
Method: as §1

[6] = target: T1, full-length human DR6 on transfected …; assay: FACS on 293T cells transfected with human DR6 (FIG. 13B)
Method: as §1

[7] = target: T3, full-length mouse DR6 on transfected …; assay: FACS on 293T cells transfected with mouse DR6 (FIG. 13C)
Method: as §1

B1: M50-H01 (Fab, V domains shown)
VH: EVQLLESGGGLVQPGGSLRLSCAASGFTFSDYPMMWVRQAPGKGLEWVSRISPSGGHTIYADSVKGRFTISRDNSKNTLYLQMNSLRAEDTAVYYCAKDWHGGGAFDIWGQGTMVTVSS
VL: DIQMTQSPSSVSASVGDRVTITCRASQGIRSWLAWYQQKPGKAPKLLIYDASTLQSGVPSRFRGGGSGTDFTLTISSLQPEDFATYYCQQSYSTPLTFGGGTKVEIK
notes: Human Fab from a phage display library
B1: binds [1].

B2: M51-H09 (Fab, V domains shown)
VH: EVQLLESGGGLVQPGGSLRLSCAASGFTFSPYSMTWVRQAPGKGLEWVSSIVPSGGKTWYADSVKGRFTISRDNSKNTLYLQMNSLRAEDTAVYYCARTNLSYFDYWGQGTLVTVSS
VL: QSELTQPPSASGSPGQSVTISCTGTSNDVGSYNYISWFQQHPGKAPKLMIYEVNKRPSGVPDRFSGSKSDNTASLTVSGLQAEDEADYYCTSYAGSHKWVFGGGTKLTVL
notes: as for B1
B2: binds [1].

B3: M53-E04 (Fab, V domains shown)
VH: EVQLLESGGGLVQPGGSLRLSCAASGFTFSNYEMSWVRQAPGKGLEWVSSIYSSGGETLYADSVKGRFTISRDNSKNTLYLQMNSLRAEDTAVYYCARDGAADYWGQGTLVTVSS
VL: QSELTQPPSASGTPGQWVTISCSGSTSNIGNNYVYWYQQLPGTAPKLLIYTNNQRPSGVPDRFSGSKSGTSASLAISGLRSEDEADYYCATWDDSLYAPVFGGGTKVTVL
notes: as for B1
B3: binds [1].

B4: M53-F04 (Fab, V domains shown)
VH: EVQLLESGGGLVQPGGSLRLSCAASGFTFSEYTMHWVRQAPGKGLEWVSVISSSGGRTVYADSVKGRFTISRDNSKNTLYLQMNSLRAEDTAVYYCARDLSNYMDYWGQGTLVTVSS
VL: DIQMTQSPATLSLSPGERATLSCRASQTVSNYLAWYQQKPGQAPRLLIYDASNRATGIPARFSGSGSGTDFTLTISSLEPEDFAVYYCQQRSKWLSFGGGTKVEIK
notes: as for B1
B4: binds [1].

B5: M62-B02 (Fab, V domains shown)
VH: EVQLLESGGGLVQPGGSLRLSCAASGFTFSMYIMNWVRQAPGKGLEWVSSIVSSGGWTFYADSVKGRFTISRDNSKNTLYLQMNSLRAEDTAVYYCARGHYGMDVWGQGTTVTVSS
VL: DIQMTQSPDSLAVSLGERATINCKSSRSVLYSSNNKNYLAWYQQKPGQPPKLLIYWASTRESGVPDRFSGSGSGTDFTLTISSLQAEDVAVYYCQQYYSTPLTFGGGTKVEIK
notes: as for B1
B5: binds [1].

B6: M63-E10 (Fab, V domains shown)
VH: EVQLLESGGGLVQPGGSLRLSCAASGFTFSQYKMSWVRQAPGKGLEWVSSISSSGGTNYADSVKGRFTISRDNSKNTLYLQMNSLRAEDTAMYYCARRNYGDRPYWYFDLWGRGTLVTVSS
VL: DIQMTQSPSTLSASVGDRVTITCRASQTISRWLAWYQHKPGKAPKLLIYKTSNLESGVPSRFSGSGSGTEFTLTISSLQPDDFATYYCQQYKSYSITFGPGTKVDIK
notes: as for B1
B6: binds [1].

B7: M66-B03 (Fab, V domains shown)
VH: EVQLLESGGGLVQPGGSLRLSCAASGFTFSPYWMSWVRQAPGKGLEWVSVIYPSGGHTYYADSVKGRFTISRDNSKNTLYLQMNSLRAEDTAVYYCARPGFGAAFDYWGPGTLVTVSS
VL: B1 VL with R30S, D50A, T53S, R63S, G65S, S91A, Y92N, T94F
B7: binds [1].

B8: M67-G02 (Fab, V domains shown)
VH: EVQLLESGGGLVQPGGSLRLSCAASGFTFSRYSMQWVRQAPGKGLEWVSVISPSGGSTMYADSVKGRFTISRDNSKNTLYLQMNSLRAEDTAVYYCARESYSSSWYSGYYYYYGMDVWGQGTTVTVSS
VL: DIQMTQSPASLSASVGDRVTITCRASQTIAGYLNWYQQTPGKAPNLLIYDASRLQSGVPSRFSGSGSGTDFTLSISGLQPEDFGTYYCQQSYTIPLTFGGGTKVEIK
notes: as for B1
B8: binds [1].

B9: M72-F03 (Fab, V domains shown)
VH: B5 VH with M31Q, I33M, N35S, S50V, V52Y, S53P, W57S, F59H
VL: DIQMTQSPDSLAVSLGERATINCKSSQSVLYSSNNKNYLAWYQHKAGQPPKLLIHWASSRASGVPDRFSGSGSGTDFTLTISSLQAEDVAVYYCQQFYSLPLTFGGGTKVEIR
notes: as for B1
B9: binds [1].

B10: M73-C04 (Fab, V domains shown)
VH: EVQLLESGGGLVQPGGSLRLSCAASGFTFSPYAMVWVRQAPGKGLEWVSSISPSGGGTGYADSVKGRFTISRDNSKNTLYLQMNSLRAEDTAVYYCAREGWNYYYGMDVWGQGTTVTVSS
VL: DIQMTQSPATLSLSPGERATLSCRASQSVSSYLAWYQQKPGQAPRLLIYDASNRATGIPARFSGSGSGTDFTLAISSLQPEDSATYYCLQDFIYPYTFGQGTKLEIR
notes: as for B1
B10: binds [1].

B11: 1P5D10.2 (antibody, V domains shown)
VH: EVQLVESGGGLVKPGGSLKLSCAASGFTFSDYYMYWVRQTPEKRLEWVATISDGGLYTYYQDSVKGRFTISRDNAKNNLYLQMSSLKSEDTAMYYCAREDDYDGDFYTMDYWGQGTSVTVSS
VL: QIVLTQSPAIMSASPGEKVTITCSASSSVSYMHWFQQKPGTSPKLWIYSTSNLASGVPARFSGSGSGTSYSLTISRMEAEDAATYYCQQRSSYPLTFGAGTKLELK
notes: Murine hybridoma monoclonal antibody; subgroup III(D) heavy chain, subgroup VI kappa light chain
B11: binds [2]; binds [3]; binds [4].

B12: 1P2F2.1 (antibody, V domains shown)
VH: QVQLQQSGPEVARPGASVKLSCKASGYTFTDYYLNWVKQRTGQGLEWIGEIYPGNNHTYYNEKFKGKATLTADNSSSTAYLQFSSLTSEDSAVYFCTRGVIKWGQGTLVTVSV
VL: DILMTQSPSSMSVSLGDTVSITCHASQGIRNSIGWLQQKPGKSFKGLIYHATTLEDGVPSRFTGSGSGADFSLTISSLESEDFADYYCVQYAQFPYTFGGGTKLEIK
notes: Murine hybridoma monoclonal antibody; subgroup II(A) heavy chain, subgroup V kappa light chain
B12: binds [5]; binds [6]; binds [7].
